For the series, the system named is MS2 coat protein. Kind of series: apparent KD of MS2 coat protein; designed switch direction (-1 OFF switch, 1 ON switch): -1; higher = weaker reporter binding. A digest of the protocol: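 Normalised cluster fluorescence was curve-fitted, and each design's median over clusters is its apparent KD. Before this, SNAP-549-labelled MS2 coat protein was titrated from 0.7 or 1.5 nM, doubling to 3 µM, over RNA switches transcribed on Illumina chips by stalled E. coli RNA polymerase. Titrations had no input, 200 uM small-molecule ligand, or an oligonucleotide input, and steps lasted 0.8–1.5 h (lowest) to 10–20 min (highest).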

Where [1] appears, read: Eterna round: R95, input ligand: microRNA oligo, concentration not stated.
[2] abbreviates: Eterna round: R95, input ligand: FMN 200 uM.
[3] abbreviates: Eterna round: R95, input ligand: none.

Consider “CCAGCGUGUGUGAGGAUAUGCUGGUCCUUGGAUCAGCAGAAGGCACAUGAGGAUCACCCAUGUGAGAACGUUGG [JL bmx4 3.33] (puzzle: Brourd's mod of Exclusion 4)”, for which, under setting [1], the “apparent KD of MS2 coat protein” value was 17.6 nM.

Regarding “CCAGGCAGUGUGAGGAUAUGCUGGUGCUUGCAUCAGCAGAAGGCACAUGAGGAUCACCCAUGUGAAGAGCUUGG [Mat - Exclusion 4 - JL Mod - D97] (puzzle: Brourd's mod of Exclusion 4)”, the “apparent KD of MS2 coat protein” value under setting [1] worked out at 21.1 nM.

Regarding “CCAGGCUGUGUGAGGAUAUGCUGGUCCUUGGAUCAGCAGAAGGCACAUGAGGAUCACCCAUGUGAAUAGCUUGG [JL bmx4 3.26] (puzzle: Brourd's mod of Exclusion 4)”, the “apparent KD of MS2 coat protein” value under setting [1] worked out at 15.8 nM.

“CCAGGCUGUGUGAGGAUAUGCUGGUCCUUGGAUCAGCAGAAGGCACAUGAGGAUCACCCAUGUGAGGAGCUUGG [JL bmx4 3.28] (puzzle: Brourd's mod of Exclusion 4)”: the “apparent KD of MS2 coat protein” value under setting [1] was 19.9 nM.

For the sequence “CCAUCACAUGAGGAUCACCCAUGUGAGGAUAUGUUUUUGGUGCGUAUAAAGCCUGGGAACAGAAGGUACAGGGA [Eternabot (L2) Solution 50] (Eterna round: R97, puzzle: Exclusion 1)”, the “apparent KD of MS2 coat protein” value is 15.3 nM (input ligand: FMN 200 uM) and 12.9 nM (input ligand: none).

As for “CCAUGUGAGGAGGAUAUCGCCGCGCGAACCGAAUGAGAAGGUCUUACAUGAGGAUCACCCAUGUAAAGUACAUC [Eternabot (L1) Solution 1] (Eterna round: R97, puzzle: Exclusion 6)”, the “apparent KD of MS2 coat protein” value (input ligand: FMN 200 uM) came to 20.9 nM and the “apparent KD of MS2 coat protein” value (input ligand: none) turned out to be 13.1 nM.

Consider “CCCGAGGAAGGAUAUACAUGAGGAUCACCCAUGUGCGUUGGGACUGGCGUGGUCUUCAGUAGAAGGUCCGCGCC [Esdiza] (Eterna round: R97, puzzle: Exclusion 3)”, for which the “apparent KD of MS2 coat protein” value by setting is: (input ligand: FMN 200 uM) 48.7 nM; (input ligand: none) 33.8 nM.

With “CCCGGGCUUGUGAGGAUAUUGUGUGUGAAAGCGCGCGAGAAGGCACAUGAGGAUCACCCAUGUAAGGGCCCGGG [-34.6, -32.6 kcal, A 23%, 6bis-0] (Eterna round: R97, puzzle: Brourd's mod of Exclusion 4)”, the “apparent KD of MS2 coat protein” value reads like this: (input ligand: FMN 200 uM) 19.3 nM; (input ligand: none) 85.9 nM.

For “CCCGGGUCAGGAUAUCACUUAAGCGCAGUGAGCGUCUGAGAUGAGAAGGGACAUGAGGAUCACCCAUGUGUGGC [Eternabot (L2) Solution 66] (Eterna round: R97, puzzle: Exclusion 4)”, the “apparent KD of MS2 coat protein” value is, setting by setting: (input ligand: FMN 200 uM) 456 nM; (input ligand: none) 93.7 nM.

“CCCUAGGGAGGAUAUCCAAUAUAUGACAUGAGGAUCACCCAUGUUUCCACUCGUACCUCCGGAGAAGGCCCAUACC [Ex5 #10] (Eterna round: R97, puzzle: Exclusion 5)”: the “apparent KD of MS2 coat protein” value came to 28 nM (input ligand: FMN 200 uM) and 28.4 nM (input ligand: none).

Turning to “CCCUCACAUGAGGAUCACCCAUGUCAGGAUAUCUAGUCAGACAGUAUAGCACUGCUGAAGAGAAGGGACGUAAA [Labiusce] (puzzle: Exclusion 1)”, the “apparent KD of MS2 coat protein” value under setting [1] was 17 nM.

As for “CCCUGACAUGAGGAUCACCCAUGUUAGGAUAUAACAUUUGACGCGACAGUGUGGAGUGUUAGAAGGGAUAUGGG [-28.4, -26.7 kcal, A 28%] (Eterna round: R97, puzzle: Exclusion 1)”, the “apparent KD of MS2 coat protein” value is, setting by setting: (input ligand: FMN 200 uM) 29.9 nM; (input ligand: none) 20.8 nM.

In the case of “CCCUUGUGAGGAUAUAGUAGUUGCACAUCGAUAGAGUAACUCUAGAAGGCACAUGAGGAUCACCCAUGUACGAA [Eternabot (L1) Solution 56] (Eterna round: R97, puzzle: Exclusion 4)”, the “apparent KD of MS2 coat protein” value (input ligand: FMN 200 uM) was 70.2 nM and the “apparent KD of MS2 coat protein” value (input ligand: none) was 119 nM.

Turning to “CCGAAAAGGAAGGAUAUGCUAGACGAAAGUCUAGCAGAAGGUCCUACAUGAGGAUCACCCAUGUGGUCCUUCGG [Mat - Exclusion 6 - Eli Mod - D35] (Eterna round: R97, puzzle: Exclusion 6)”, the “apparent KD of MS2 coat protein” value was 1730 nM (input ligand: FMN 200 uM) and 448 nM (input ligand: none).

As to “CCGAAUAAGUAGGAUAUCGUAUCGGAAACGAUACGAGAAGGGCUAACAUGAGGAUCACCCAUGUUCCUUAACGG [Fiskers Ex 6 - 16] (puzzle: Exclusion 6)”, the “apparent KD of MS2 coat protein” value was 20 nM under setting [2], 16.4 nM under setting [1] and 18.7 nM under setting [3].

In the case of “CCGCAAAUGGAGGAUAUCGUAUCGGAUACGAUACGAGAAGGCUAAACAUGAGGAUCACCCAUGUGUCCUAGCGG [Fiskers Ex 6 - 34] (puzzle: Exclusion 6)”, the “apparent KD of MS2 coat protein” value under setting [1] is 10.9 nM.

On to “CCGCUACAUGAGGAUCACCCAUGUCAGGAUAUCGUACGUUCGUCGAUAGACGAUCGUACGAGAAGGGUGAGCGG [Mat - Exclusion 1 - Eli Mod - D37] (Eterna round: R97, puzzle: Exclusion 1)”, for which the “apparent KD of MS2 coat protein” value runs as follows: (input ligand: FMN 200 uM) 156 nM; (input ligand: none) 209 nM.

On to “CCGCUCCGUGUAGGAUAUCGUUGUACCCUGCGGCGAGAAGGACAUGAGGAUCACCCAUGUAUGUUAUUAUCACGCGUGGCGCAC [Design 71] (Eterna round: R96, puzzle: Exclusion NG 1)”, for which the “apparent KD of MS2 coat protein” value (input ligand: FMN 200 uM) was determined as 18 nM; the “apparent KD of MS2 coat protein” value (input ligand: microRNA oligo, concentration not stated) was found to be 15.8 nM; the “apparent KD of MS2 coat protein” value (input ligand: none) was determined as 19.3 nM.

On to “CCGGAAGUACAGGAUAUCGUAACGGAUACGUUACGAGAAGGGUAUACAUGAGGAUCACCCAUGUGUCCUACCGG [Mat - Exclusion 6 - Eli Mod - D95] (puzzle: Exclusion 6)”, for which the “apparent KD of MS2 coat protein” value by setting is: under setting [2], 27.8 nM; under setting [1], 26 nM; under setting [3], 27.1 nM.

“CCGGUAUAGGAGGAUAUAGGAGUCGAUAGACACCUAGAAGGCCUGACAUGAGGAUCACCCAUGUGUCCUUCCGG [Fiskers Ex 6 - 95] (puzzle: Exclusion 6)”: under setting [1], the “apparent KD of MS2 coat protein” value stood at 17.7 nM.

For the sequence “CCGGUUUAGGAGGAUAUAGGAGUCGAUAGACACCUAGAAGGCCUAACAUGAGGAUCACCCAUGUGACCUUCCGG [Mod of Eli 30 - Jieux - Exclusion 6] (Eterna round: R97, puzzle: Exclusion 6)”, the “apparent KD of MS2 coat protein” value is, setting by setting: (input ligand: FMN 200 uM) 234 nM; (input ligand: none) 76 nM.

On to “CCGUAACAUGAGGAUCACCCAUGUCAGGAUAUUCCAAAAUCGUCGAAAGACGAUAACAGAAGAAGGGACAGUGG [Fiskxlusion 5 - Jieux - Exclusion 1] (Eterna round: R97, puzzle: Exclusion 1)”, for which the “apparent KD of MS2 coat protein” value (input ligand: FMN 200 uM) came to 104 nM and the “apparent KD of MS2 coat protein” value (input ligand: none) was found to be 111 nM.

As for “CCGUGCACGCUCCGGUCCUACAUGAGGAUCACCCAUGUGGUCCGGUGGCGUGGGUCGCCGGACUUGGCUCGUCUUGU [salish99_S_TOV1_R5_018] (Eterna round: R97, puzzle: Sensor, turn-off variant 1)”, the “apparent KD of MS2 coat protein” value runs as follows: (input ligand: FMN 200 uM) 16.3 nM; (input ligand: none) 17.4 nM.

On to “CCGUGGUUAGGAUAUUCGAAUGAGCACAUGAGGAUCACCCAUGUCUGAAUUGACAGCCGAGAAGAAGGAACCACUC [Eternabot (L2) Solution 24] (Eterna round: R97, puzzle: Exclusion 5)”, for which the “apparent KD of MS2 coat protein” value (input ligand: FMN 200 uM) stood at 29.5 nM and the “apparent KD of MS2 coat protein” value (input ligand: none) was found to be 23.3 nM.

The values above are taken from the supplement of paper PMC9170038.
